Results taken from publication PMC8423902 (Cell Reports, 2021).

Target: trimeric SARS-CoV-2 ectodomain (S 6P trimer, residues 16-1206) (SARS-CoV-2, early isolate GenBank …, UniProt P0DTC2, stabilised)
Experiment: cryo-EM structure

B1: C118 Fab (Fab, V domains shown)
VH: QVQLVESGGGVVQPGRSLRLSCAASGFTFSNYAMHWVRQAPGKGLEWVAVISYDGSNKYYADSVKGRFTISRDNSKNTLYLQMNSLRAEDTAIYYCASGYTGYDYFVRGDYYGLDVWGQGTTVTVSS
VL: QPVLTQSPSASASLGASVKLTCTLSSGHSSYAIAWHQQQPEKGPRYLMKLNTDGSHSKGDGIPDRFSGSSSGAERYLTISSLQSEDEADYYCQTWGTGILVFGGGTKLTVL
B1: binds.
